From publication PMC9742198 (Immunity, 2022)

Biological target: SARS-CoV-2 receptor-binding domain (ancestral RBD) (SARS-CoV-2 (ancestral), UniProt P0DTC2)
Assay: ELISA

B1: CAB-I12 (antibody, V domains shown)
VH: QVQLVQSGAEVKKPGSSVKVSCKASGDTFSRYSISWVRQAPGQGLEWMGRIIPMFATANYAQKFQGRVTITADKTTSIAYMELSSLRSEDTAVYYCARANYYYESGGYHFDNWGQGTLVTVSS
VL: EIVLTQSPGTLSLSPGERATLSCRASQSVGSSYLAWYQQKPGQAPRLLIYGASTRATGIPHRFSGSGSGTDFTLTISRLEPEDFAVYYCQQYHNSPRTFGQGTKV
  binding result: binds
